Experiments:
[1] = target: T1, Human CD3εδ Fc heterodimer (Hu CD3ε Fc + CD3δ Fc-HIS) (human, UniProt P07766 22-126; P04234 22-100); experiment: BLI (Octet), Fab monovalent, pH 6.0
T1 construct: range 22-126;range 22-100; Made in HEK 293 cells with a heterologous signal peptide; also called Hu CD3εδ-Fc; CD3εδ Fc-HIS heterodimer; not shown: Fc; Fc followed by HIS tag

[2] = target: T2, Cynomolgus CD3εδ Fc heterodimer (Cy CD3ε Fc + CD3δ Fc-HIS) (cynomolgus, UniProt Q95LI5 22-117; Q95LI8 22-100); experiment: BLI (Octet), Fab monovalent, pH 6.0
T2 construct: range 22-117;range 22-100; Made in HEK 293 cells with a heterologous signal peptide; also called Cy CD3εδ-Fc; cyno CD3εδ Fc; not shown: Fc; Fc followed by HIS tag

[3] = target: T1, Human CD3εδ Fc heterodimer (Hu CD3ε Fc …); experiment: BLI (Octet), Fab monovalent, pH 7.4
[4] = target: T2, Cynomolgus CD3εδ Fc heterodimer (Cy …); experiment: BLI (Octet), Fab monovalent, pH 7.4
[5] = target: T3, Rhesus CD3εδ Fc heterodimer (rhesus); experiment: BLI (Octet), Fab monovalent, pH 7.4
T3 construct: extracellular domain; also called Rh CD3εδ-Fc

[6] = target: T1, Human CD3εδ Fc heterodimer (Hu CD3ε Fc …); experiment: BLI (Octet), CD3εδ Fc on AHC sensor, 100 nM Fab
Method: (§1) Affinity of the anti-CD3 antibodies for CD3 was determined by measuring their kinetic constants (kₒₙ, koff, KD) on ForteBio Octet®. ForteBio affinity measurements were performed generally as previously described (Estep et al., MAbs. 2013 5(2):270-8). […] Sensors were equilibrated off-line in assay buffer for 30 minutes and then monitored on-line for 60 seconds for baseline establishment. For monovalent binding measurement, sensors with loaded CD3εδ Fc were exposed to 100 nM anti-CD3 Fab, as further described in Example 2 below] for 3 minutes, afterwards they were transferred to assay buffer for 3 minutes for off-rate measurement. Kinetics data were fit using a 1:1 binding model in the data analysis software provided by ForteBio.

[7] = target: T2, Cynomolgus CD3εδ Fc heterodimer (Cy …); experiment: BLI (Octet), CD3εδ Fc on AHC sensor, 100 nM Fab
Method: as §1

[8] = target: T1, Human CD3εδ Fc heterodimer (Hu CD3ε Fc …); experiment: SPR (Biacore), Fab over immobilized CD3εδ Fc, pH 6.0
[9] = target: T2, Cynomolgus CD3εδ Fc heterodimer (Cy …); experiment: as above
[10] = target: T1, Human CD3εδ Fc heterodimer (Hu CD3ε Fc …); experiment: SPR (Biacore), Fab over immobilized CD3εδ Fc, pH 7.4
[11] = target: T2, Cynomolgus CD3εδ Fc heterodimer (Cy …); experiment: as above
[12] = target: T1, Human CD3εδ Fc heterodimer (Hu CD3ε Fc …); experiment: SPR (Biacore), Fab over Hu CD3εδ-Fc; sensorgram inset tied by a line to the filled square (parent antibody) labelled A001; pH not given on the sheet
[13] = target: T1, Human CD3εδ Fc heterodimer (Hu CD3ε Fc …); experiment: SPR (Biacore), Fab over Hu CD3εδ-Fc; sensorgram inset tied by a line to the filled square (parent antibody) labelled A002; pH not given on the sheet
[14] = target: T1, Human CD3εδ Fc heterodimer (Hu CD3ε Fc …); experiment: SPR (Biacore), Fab over Hu CD3εδ-Fc; sensorgram inset labelled V013, tied by a line to an open square (PSR-optimized antibody); pH not given on the sheet
[15] = target: T4, Human CD3 on CD3+ Jurkat cells (human, UniProt P07766 23-207); experiment: flow cytometry, Fab titration
T4 construct: whole, on cells; Target is the endogenous CD3 complex on cells; also called Human CD3+ Jurkat cells
Method: Further FACS analysis was conducted using 3-fold serial dilutions of anti-CD3 antibody Fab fragments. Fab fragments were generated from whole IgG antibodies by papain digestion and purified over KappaSelect or CaptureSelect IgG-CH1 (GE Healthcare LifeSciences) before preparation of serial dilutions. Binding to human CD3+ Jurkat cells and Cynomolgus monkey CD3 HSC-F cells was assessed with each diluted sample and results were used to build a titration curve and calculate half maximal effective concentration (EC50) values for Fab binding.

[16] = target: T1, Human CD3εδ Fc heterodimer (Hu CD3ε Fc …); experiment: SPR (Biacore), Fab over Hu CD3εδ-Fc; sensorgram inset labelled V007, tied by a line to an open square (PSR-optimized antibody); pH not given on the sheet

T2 sequence (Q95LI5 22-117, stated change not applied, form in doubt, chain 1 of 2): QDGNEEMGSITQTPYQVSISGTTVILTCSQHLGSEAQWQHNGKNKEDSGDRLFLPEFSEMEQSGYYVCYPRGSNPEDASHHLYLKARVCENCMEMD
T2 sequence (Q95LI8 22-100, stated change not applied, form in doubt, chain 2 of 2): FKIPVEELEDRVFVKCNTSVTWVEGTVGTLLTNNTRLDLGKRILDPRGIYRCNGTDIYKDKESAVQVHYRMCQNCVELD
T1 sequence (P07766 22-126, stated change not applied, form in doubt, chain 1 of 2): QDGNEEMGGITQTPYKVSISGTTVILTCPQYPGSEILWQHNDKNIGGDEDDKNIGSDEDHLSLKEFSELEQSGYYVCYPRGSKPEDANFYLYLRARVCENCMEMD
T1 sequence (P04234 22-100, stated change not applied, form in doubt, chain 2 of 2): as the sequence (Q95LI8 22-100, stated change not applied, form in doubt, chain 2 of 2) above, with V5I, K15N, V20I, T32S, N33D, N34I, A64T, N74S counted along it
T4 sequence (P07766 23-207): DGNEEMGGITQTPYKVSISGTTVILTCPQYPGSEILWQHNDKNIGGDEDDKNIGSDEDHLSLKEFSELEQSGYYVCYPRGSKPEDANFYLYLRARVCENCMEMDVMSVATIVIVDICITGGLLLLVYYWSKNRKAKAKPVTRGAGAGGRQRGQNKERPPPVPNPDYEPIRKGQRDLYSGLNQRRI

| Binder | Kd [1] [nM] | Kd [2] [nM] | Kd [3] [nM] | Kd [4] [nM] | Kd [5] [nM] | Kd [6] [nM] | Kd [7] [nM] | Kd [8] [nM] | Kd [9] [nM] | Kd [10] [nM] | Kd [11] [nM] | Kd [12] [nM] | Kd [13] [nM] | Kd [14] [nM] | EC50 [15] [nM] | Kd [16] [nM] |
| --- | --- | --- | --- | --- | --- | --- | --- | --- | --- | --- | --- | --- | --- | --- | --- | --- |
| Antibody No. A001 (ADI-26906) Fab (Fab, V domains shown, Fab by papain digestion of the IgG1) VH: QVQLVQSGAEVKKPGASVKVSCKASGFNIKDYYMHWVRQAPGQRLEWMGWIDLENANTIYDAKFQGRVTITRDTSASTAYMELSSLRSEDTAVYYCARDAYGRYFYDVWGQGTLVTVSS VL: DIVMTQSPDSLAVSLGERATINCKSSQSLLNARTGKNYLAWYQQKPGQPPKLLIYWASTRESGVPDRFSGSGSGTDFTLTISSLQAEDVAVYYCKQSYSRRTFGGGTKVEIK | 5.8 | 5.9 | 6 | 5.9 | 6.1 | 2.81 | 2.9 | 1.3 | 1.9 | 1.1 | 1.1 | 2 |  |  |  |  |
| Antibody No. A002 (ADI-50024) Fab (Fab, V domains shown, Fab by papain digestion of the IgG1) VH: QVQLVQSGAEVKKPGASVKVSCKASGFNIKDYYMHWVRQAPGQRLEWIGWIDLENANTVYDAKFQGRVTITRDTSASTAYMELSSLRSEDTAVYYCARDAYGRYFYDVWGQGTLVTVSS VL: DIVMSQSPDSLAVSLGERATINCKSSQSLLNARTGKNYLAWYQQKPGQPPKLLIYWASTRSSGVPDRFSGSGSGTDFTLTISSLQAEDVAVYYCVQSYFRRTFGGGTKVEIK | 1.3 | 1.7 | 1 | 1.3 | 1.2 | 0.5 | 0.57 | 0.31 | 0.2 | 0.059 | 0.076 |  | 0.244 |  |  |  |
| Antibody No. V013 (ADI-70330) Fab (Fab, V domains shown, Fab by papain digestion of the IgG1) VH: QVQLVQSGAEVKKPGASVKVSCKASGFNIDDYYMHWVRQAPGQRLEWIGWIDLENANTVDDAKFQGRVTITRDTSASTAYMELSSLRSEDTAVYYCARDAYGRYFYDVWGQGTLVTVSS VL: DIVMSQSPDSLAVSLGERATINCKSSQSLLNARTGKNYLAWYQQKPGQPPKLLIYWASTRSSGVPDRFSGSGSGTDFTLTISSLQAEDVAVYYCVQSYFRRTFGGGTKVEIK | 1.6 | 1.9 | 2.4 | 2.4 | 2.5 | 1.16 | 1.23 | 1.6 | 0.27 | 0.18 | 0.22 |  |  | 0.681 |  |  |
| Antibody No. V011 (ADI-70328) Fab (Fab, V domains shown, Fab by papain digestion of the IgG1) VH: QVQLVQSGAEVKKPGASVKVSCKASGFNIDDYYMHWVRQAPGQRLEWIGWIDLENDNTVYDAKFQGRVTITRDTSASTAYMELSSLRSEDTAVYYCARDAYGRYFYDVWGQGTLVTVSS VL: DIVMSQSPDSLAVSLGERATINCKSSQSLLNARTGKNYLAWYQQKPGQPPKLLIYWASTRSSGVPDRFSGSGSGTDFTLTISSLQAEDVAVYYCVQSYFRRTFGGGTKVEIK |  |  |  |  |  | 0.82 | 0.86 |  |  |  |  |  |  |  | 2.77 |  |
| Antibody No. V007 (ADI-67450) Fab (Fab, V domains shown, Fab by papain digestion of the IgG1) VH: QVQLVQSGAEVKKPGASVKVSCKASGFNIDDYYMHWVRQAPGQRLEWMGWIDLENANTIDDAKFQGRVTITRDTSASTAYMELSSLRSEDTAVYYCARDAYGRYFYDVWGQGTLVTVSS VL: DIVMTQSPDSLAVSLGERATINCKSSQSLLNARTGKNYLAWYQQKPGQPPKLLIYWASTRESGVPDRFSGSGSGTDFTLTISSLQAEDVAVYYCKQSYSRRTFGGGTKVEIK | 6.9 | 6.9 | 7.4 | 8.7 | 9.2 | 5.39 | 5.03 | 2.8 | 2.1 | 4 | 2.7 |  |  |  |  | 3.7 |
